Among the data in patent US20240150451A1 are % inhibition of tau seeding in FRET biosensor cells after immunodepletion, antibody 3 nM and % inhibition of tau seeding in FRET biosensor cells after immunodepletion, antibody 300 nM values, retold here.

Numbering of substitutions follows the chain as printed.

B1: PT66 monoclonal antibody (recombinant, mouse IgG2a/kappa) (antibody, V domains shown)
VH: QVQLQQPGAELVKPGASVKMSCKASGYTFTSYWITWVKQRPGQGLEWIGDIHPGRGSTKSNEKFKSKATLTVDTSSSTAYMQFSSLTSEDSAVYYCARRWGFDYWGQGTTLTVSS
VL: DIVITQDELSNPVTSGESVSISCRSSKSLLYKDGKTYLNWFLQRPGQSPQLLIYLMSTRASGVSDRFSGSGSGTDFTLEISRVKAEDVGVYYCQQLVDYPLTFGAGTKLELKR
B2: PT69 monoclonal antibody (recombinant, mouse IgG2a/kappa) (antibody, V domains shown)
VH: B1 VH with S31N, H52Y, R55S, S57R, S66N, V72A, F83L, A97T, F102L
VL: B1 VL with S26N
B3: hTau60 monoclonal antibody (recombinant, mouse IgG2a/kappa) (antibody, V domains shown)
VH: EVQLQQSGPELVKPGTSVKISCKVFGYTFTDYYMNWVKQSHGKSLEWIGDINPDNGETTYNQKFKGKATLTVDKSSSTAYMELRSLTSEDSAVYYCAKGATFVYWGQGTLVTVSA
VL: DVVMTQTPLSLPVSLGDQASISCISSQSLVHSTGTTFLHWFLQKPGQSPKLLIYKVSNRFSGVPDRFSGSGSGTDFTLKISRVEAEDLGFYFCSQSTYFPLTFGSGTKLEIKR

For this test, the target named is tau of P301S transgenic mice (aggregated tau in brainstem; tau seeds from spinal cord) (UniProt P10636). Description: cell-based or functional assay.
Chain of tau of P301S transgenic mice (aggregated tau in brainstem; tau seeds from spinal cord) (P10636 other isoform, or with tags, fused parts or gaps P301S P301S): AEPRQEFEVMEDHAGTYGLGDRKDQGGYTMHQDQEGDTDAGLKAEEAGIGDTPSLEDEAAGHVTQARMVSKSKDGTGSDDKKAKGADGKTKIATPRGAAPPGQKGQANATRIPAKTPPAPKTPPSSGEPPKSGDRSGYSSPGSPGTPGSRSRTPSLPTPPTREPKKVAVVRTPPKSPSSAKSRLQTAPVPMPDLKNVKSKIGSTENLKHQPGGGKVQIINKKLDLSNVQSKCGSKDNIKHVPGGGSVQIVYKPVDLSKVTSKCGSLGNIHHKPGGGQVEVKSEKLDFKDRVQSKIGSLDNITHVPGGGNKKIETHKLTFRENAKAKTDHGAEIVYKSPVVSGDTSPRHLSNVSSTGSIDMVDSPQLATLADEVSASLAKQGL
B1 displayed a % inhibition of tau seeding in FRET biosensor cells after immunodepletion, antibody 3 nM of 46.5% and a % inhibition of tau seeding in FRET biosensor cells after immunodepletion, antibody 300 nM of 99.7%.
The molecule B2 displayed a % inhibition of tau seeding in FRET biosensor cells after immunodepletion, antibody 3 nM of 45.8% and a % inhibition of tau seeding in FRET biosensor cells after immunodepletion, antibody 300 nM of 99.8%.
Molecule B3 showed a % inhibition of tau seeding in FRET biosensor cells after immunodepletion, antibody 3 nM of 22% and a % inhibition of tau seeding in FRET biosensor cells after immunodepletion, antibody 300 nM of 99.7%.
